# Laboratory results from the RNAGym collection of RNA variant scans (doi:10.1073/pnas.2313332121).
# B1: TPR t1 (parent)
# chain: GACCAAUCUGCCCUCAGAGCUCGAGAACAUCUUCGGAUGCAGAGGAGGCAGGCUUCGGUGGCGCGAUAGCGCCAACGUCCUCAACCUCCAAUGCAUCCCACCACAUGAUGAUGCCUGAAGAGCCUUGGUUUUUUG
# Variants of: B1
# Assay: polymerase ribozyme fitness, log enrichment relative to wild type (log ratio); higher = more active; in vitro selection for triplet polymerase activity
# Summary of the method: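 Mutant libraries of each subunit of a heterodimeric triplet polymerase ribozyme were built by PCR and transcribed. Each library went through one round of in vitro selection in triplicate: annealing with biotinylated primer, partner subunit and triplets, frozen incubation at −7 °C, gel excision of extended constructs, streptavidin-bead capture and RT-PCR. Input and output libraries were Illumina-sequenced; only genotypes with ≥10 input reads and ≥1 read per output were kept. Fitness is log2(genotype enrichment/wild-type enrichment), using inverse-variance-weighted replicate averages.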
row,Variant,polymerase ribozyme fitness (log ratio)
1,GACCAAUCUGCCCUCAGAGCUCGAGAACAUCUUCGGAUGCAGAGGAGGCAGGCUUCGGUGACGCGAUAGCGCCAACAUCCUCAACCUCCAGUGCAUCCCACCACAUGAUGAUGCCUGAAGAGCCUUGGUUUUUUG [G61A G77A A91G],-2.58
2,GACCAAUCUGCCCUCAGAGCUCGAGAACAUCUUCGGAUGCAGAGGAGGCAGGCUUCGGUGACGCGAUAGCGCCAACUUCCUCAACCUCCAAUGCAUCCCACCACAUGAUGAUGCCUGAAGAGCCUUGGUUUUUUG [G61A G77U],0.142
3,GACCAAUCUGCCCUCAGAGCUCGAGAACAUCUUCGGAUGCAGAGGAGGCAGGCUUCGGUGACGCGAUAGCGCCAACGUCCUCAACCUCCAAUACAUCCCACCACGUGAUGAUGCCUGAAGAACCUUGGUUUUUUG [G61A G93A A105G G122A],-5.32
4,GACCAAUCUGCCCUCAGAGCUCGAGAACAUCUUCGGAUGCAGAGGAGGCAGGCUUCGGUGACGCGAUAGCGCCAACGUCCUCAACCUCCAAUACAUACCACCACAUGAUGAUGCCUGAAUAGCCUUGGUUUUCUG [G61A G93A C97A G120U U133C],-6.04
5,GACCAAUCUGCCCUCAGAGCUCGAGAACAUCUUCGGAUGCAGAGGAGGCAGGCUUCGGUGACGCGAUAGCGCCAACGUCCUCAACCUCCAAUUCAUCCCACCACAUGAUGAUGCCUGAAGAGCCUUGGUUUUUUG [G61A G93U],-0.737
6,GACCAAUCUGCCCUCAGAGCUCGAGAACAUCUUCGGAUGCAGAGGAGGCAGGCUUCGGUGACGCGAUAGCGCCAACGUCCUCAACCUCCAAUGCAUCCCACCACAUGAUGAUCCCUGAAGAGCCUUGGUUUUUUG [G61A G113C],-1.78
7,GACCAAUCUGCCCUCAGAGCUCGAGAACAUCUUCGGAUGCAGAGGAGGCAGGCUUCGGUGACGCGAUAGCGCCAACGUCCUCAACCUCCAAUGCAUCCCACCACAUGAUGAUCCCUGAAGAGCCUUGGUUUUUUA [G61A G113C G135A],-2.34
8,GACCAAUCUGCCCUCAGAGCUCGAGAACAUCUUCGGAUGCAGAGGAGGCAGGCUUCGGUGACGCGAUAGCGCCAACGUCCUCAACCUCCAAUGCAUCCCACCACAUGAUGAUGCCUGAAAAGUCUUGGUUUUUUG [G61A G120A C123U],1.5
9,GACCAAUCUGCCCUCAGAGCUCGAGAACAUCUUCGGAUGCAGAGGAGGCAGGCUUCGGUGACGCGAUAGCGCCAACGUCCUCAACCUCCAAUGCAUCCCACCACAUGAUGAUGCCUGAACAGCCUUGGUUUUUUG [G61A G120C],1.14
10,GACCAAUCUGCCCUCAGAGCUCGAGAACAUCUUCGGAUGCAGAGGAGGCAGGCUUCGGUGACGCGAUAGCGCCAACGUCCUCAACCUCCAAUGCAUCCCACCACAUGAUGAUGCCUGAAUAGCCUUGGUUUUUUG [G61A G120U],0.215
11,GACCAAUCUGCCCUCAGAGCUCGAGAACAUCUUCGGAUGCAGAGGAGGCAGGCUUCGGUGACGCGAUAGCGCCAACGUCCUCAACCUCCAAUGCAUCCCACCACAUGAUGAUGCCUGAAGAGCCUUAGUUUUUUG [G61A G127A],-2.37
12,GACCAAUCUGCCCUCAGAGCUCGAGAACAUCUUCGGAUGCAGAGGAGGCAGGCUUCGGUGACGCGAUAGCGCCAACGUCCUCAACCUCCAAUGCAUCCCACCACAUGAUGAUGCCUGAAGAGCCUUUGUUUUUUG [G61A G127U],-1.35
13,GACCAAUCUGCCCUCAGAGCUCGAGAACAUCUUCGGAUGCAGAGGAGGCAGGCUUCGGUGACGCGAUAGCGCCAACGCCCUCAACCUCCAAUGCCUCCCACCACAUGAUGAUGCCUGAAGAGACUUGGUUUUUUG [G61A U78C A95C C123A],0.138
14,GACCAAUCUGCCCUCAGAGCUCGAGAACAUCUUCGGAUGCAGAGGAGGCAGGCUUCGGUGACGCGAUAGCGCCAACGCCCUCAACAUCCAAUGCCUCCCACCACAUGAUGAUGCCUGAAGAGCCUUGGUUUUUUG [G61A U78C C86A A95C],-1.85
15,GACCAAUCUGCCCUCAGAGCUCGAGAACAUCUUCGGAUGCAGAGGAGGCAGGCUUCGGUGACGCGAUAGCGCCAACGGCCUCAACCUCCAAUGCAUCCCACCACAUAAUGAUGUCUAAAGAGCCUUGGUUUUUUG [G61A U78G G107A C114U G117A],-6.96
16,GACCAAUCUGCCCUCAGAGCUCGAGAACAUCUUCGGAUGCAGAGGAGGCAGGCUUCGGUGACGCGAUAGCGCCAACGUCCACAACCUCCAAUGCAUCCCACCACAUGAUGAUGCCUGAAGAGCCUUGGUUUUUUG [G61A U81A],-0.273
17,GACCAAUCUGCCCUCAGAGCUCGAGAACAUCUUCGGAUGCAGAGGAGGCAGGCUUCGGUGACGCGAUAGCGCCAACGUCCUCAACCGCCAAUGCAUCCCACCACAUGAUGAUGCCUGAAGAGCCUUGGUUUUUUG [G61A U87G],0.506
18,GACCAAUCUGCCCUCAGAGCUCGAGAACAUCUUCGGAUGCAGAGGAGGCAGGCUUCGGUGACGCGAUAGCGCCAACGUCCUCAACCUCCAAAGCAUCCCACCACAUGAUGAUGCCUGAAGAGCCUUGGUUUUUUG [G61A U92A],-2.76
19,GACCAAUCUGCCCUCAGAGCUCGAGAACAUCUUCGGAUGCAGAGGAGGCAGGCUUCGGUGACGCGAUAGCGCCAACGUCCUCAACCUCCAAAGCAUCCCACCACAUGAUGAUGCCUGAAGAGACUUGGUUUUUUG [G61A U92A C123A],-2.16
20,GACCAAUCUGCCCUCAGAGCUCGAGAACAUCUUCGGAUGCAGAGGAGGCAGGCUUCGGUGACGCGAUAGCGCCAACGUCCUCAACCUCCAAGGCAUCCCACCACAUGAUGAUUCCUGAAGAGCCUUGGUUUUUUG [G61A U92G G113U],-4.27
21,GACCAAUCUGCCCUCAGAGCUCGAGAACAUCUUCGGAUGCAGAGGAGGCAGGCUUCGGUGACGCGAUAGCGCCAACGUCCUCAACCUCCAAUGCAUCCCACCACAAGAUGAUCCCUGAAGAGCCUUGGUUUUUUG [G61A U106A G113C],-1.85

row,Variant,polymerase ribozyme fitness (log ratio)
1,GACCAAUCUGCCCUCAGAGCUCGAGAACAUCUUCGGAUGCAGAGGAGGCAGGCUUCGGUGACGCGAUAGCGCCAACGUCCUCAACCUCCAAUGCAUCCCACCACACGAUGAUGCCUGAAGAGCCUUGGUUUUUUG [G61A U106C],0.151
2,GACCAAUCUGCCCUCAGAGCUCGAGAACAUCUUCGGAUGCAGAGGAGGCAGGCUUCGGUGACGCGAUAGCGCCAACGUCCUCAACCUCCAAUGCAUCCCACCACACGAUGAUGCCUGAAGAACCUUGGUUUUUUG [G61A U106C G122A],-0.878
3,GACCAAUCUGCCCUCAGAGCUCGAGAACAUCUUCGGAUGCAGAGGAGGCAGGCUUCGGUGACGCGAUAGCGCCAACGUCCUCAACCUCCAAUGCAUCCCACCACAUGAUGACGCCUGAAGAGCCUUGGUUUUUUG [G61A U112C],1.57
4,GACCAAUCUGCCCUCAGAGCUCGAGAACAUCUUCGGAUGCAGAGGAGGCAGGCUUCGGUGACGCGAUAGCGCCAACGUCCUCAACCUCCAAUGCAUCCCACCACAUGAUGACGCCUGAAGAGCCUUCGUUUUUUG [G61A U112C G127C],0.55
5,GACCAAUCUGCCCUCAGAGCUCGAGAACAUCUUCGGAUGCAGAGGAGGCAGGCUUCGGUGACGCGAUAGCGCCAACGUCCUCAACCUCCAAUGCAUCCCACCACAUGAUGAUGCCUGAAGAGCCUUGGCUUUUUG [G61A U129C],0.132
6,GACCAAUCUGCCCUCAGAGCUCGAGAACAUCUUCGGAUGCAGAGGAGGCAGGCUUCGGUGACGCGAUAGCGCCAACGUCCUCAACCUCCAAUGCAUCCCACCACAUGAUGAUGCCUGAAGAGCCUUGGUUUAUUG [G61A U132A],0.242
7,GACCAAUCUGCCCUCAGAGCUCGAGAACAUCUUCGGAUGCAGAGGAGGCAGGCUUCGGUGACGCGAUAGCGCCAACGUCCUCAACCUCCAAUGCAUCCCACCACAUGAUGAUGCCUGAAGAGCCUUGGUUUUGUG [G61A U133G],-0.781
8,GACCAAUCUGCCCUCAGAGCUCGAGAACAUCUUCGGAUGCAGAGGAGGCAGGCUUCGGUGCCGCGAUAGCGCCAACGUCCUCACCCUCCAAUGCAUCCCACCACAUGAUGAUGCCUGAAGAGCCUUGGUUUUUUG [G61C A84C],-1.86
9,GACCAAUCUGCCCUCAGAGCUCGAGAACAUCUUCGGAUGCAGAGGAGGCAGGCUUCGGUGCCGCGAUAGCGCCAACGUCCUCAUCCUCCAAUCCAUCCCACCACAUGAUGAUGCCUGAAGAGCCUUGAUUUUUUG [G61C A84U G93C G128A],-5.12
10,GACCAAUCUGCCCUCAGAGCUCGAGAACAUCUUCGGAUGCAGAGGAGGCAGGCUUCGGUGCCGCGAUAGCGCCAACGUCCUCAACCUCCUAUGCAUCCCACCACAUGAUGAUGCCUGAAGAGCCUUGGUUUUUUG [G61C A90U],-4.47
11,GACCAAUCUGCCCUCAGAGCUCGAGAACAUCUUCGGAUGCAGAGGAGGCAGGCUUCGGUGCCGCGAUAGCGCCAACGUCCUCAACCUCCAAUGCAUCCCUCCACAUGAUGGUACCUGAAGAGCCUUGGUUUUUUG [G61C A100U A111G G113A],-4.64
12,GACCAAUCUGCCCUCAGAGCUCGAGAACAUCUUCGGAUGCAGAGGAGGCAGGCUUCGGUGCCGCGAUAGCGCCAACGUCCUCAACCUCCAAUGCAUCCCUCCACAUGAUGAUGCCUGAACAGCCUUUGUUUUUUG [G61C A100U G120C G127U],-1.07
13,GACCAAUCUGCCCUCAGAGCUCGAGAACAUCUUCGGAUGCAGAGGAGGCAGGCUUCGGUGCCGCGAUAGCGCCAACGUCCUCAACCUCCAAUGCAUCCCACCCCAUGAGGAUGCCUGAAGAGCCUUGGUUUUUUG [G61C A103C U109G],-5.79
14,GACCAAUCUGCCCUCAGAGCUCGAGAACAUCUUCGGAUGCAGAGGAGGCAGGCUUCGGUGCCGCGAUAGCGCCAACGUCCUCAACCUCCAAUGCAUCCCACCACAUGAUGGUGCCGGAAGAGCAUUGGUUGUUUG [G61C A111G U116G C124A U131G],-3.87
15,GACCAAUCUGCCCUCAGAGCUCGAGAACAUCUUCGGAUGCAGAGGAGGCAGGCUUCGGUGCCGCGAUAGUGCCAACGUCCUCAACCUCCAAUGCAUCCCACCACAUGAUGAUGCCUGAAGAGCCUUGGUUUUUUG [G61C C70U],-4.17
16,GACCAAUCUGCCCUCAGAGCUCGAGAACAUCUUCGGAUGCAGAGGAGGCAGGCUUCGGUGCCGCGAUAGUGCCAACGUCCUCAACCUCCAAUGCAUCCCACCACAUGAUGAUGUCUGAAGAGCCUUUGUUUUUUG [G61C C70U C114U G127U],-4.4
17,GACCAAUCUGCCCUCAGAGCUCGAGAACAUCUUCGGAUGCAGAGGAGGCAGGCUUCGGUGCCGCGAUAGCGCCAACGUAUUCAACCUCCAAUGCAUCCCACCACAUGAUGAUGCCUGAAGAGCCUUGGUUUUUUG [G61C C79A C80U],-4.17
18,GACCAAUCUGCCCUCAGAGCUCGAGAACAUCUUCGGAUGCAGAGGAGGCAGGCUUCGGUGCCGCGAUAGCGCCAACGUCCUCAACCUACAAUGCAUCCCACCACAUGAUGAUGCCUGAAGAGCCUUGGUUUUUUG [G61C C88A],-2.91
19,GACCAAUCUGCCCUCAGAGCUCGAGAACAUCUUCGGAUGCAGAGGAGGCAGGCUUCGGUGCCGCGAUAGCGCCAACGUCCUCAACCUCUAAUGCAUCCCACCACAUGAUGAUGCCUGAAGAGCCUUGGUUUUUUG [G61C C89U],-1.58
20,GACCAAUCUGCCCUCAGAGCUCGAGAACAUCUUCGGAUGCAGAGGAGGCAGGCUUCGGUGCCGCGAUAGCGCCAACGUCCUCAACCUCCAAUGCAUACCACCACAUGAUGAUGCCUGAAGAGCCUUGGUUUUUUG [G61C C97A],-4.3
21,GACCAAUCUGCCCUCAGAGCUCGAGAACAUCUUCGGAUGCAGAGGAGGCAGGCUUCGGUGCCGCGAUAGCGCCAACGUCCUCAACCUCCAAUGCAUACCACCACAUGAUGAUGCCUGAAGAGCGUUGGUUUUUUG [G61C C97A C124G],-5.48
